Measurements published in patent publication US10538556.

Columns and labels:
[1] = system: stapled (cyclic) beta2-beta3 loop peptide L44C, F56C (synthetic); assay: flow; settings: 25 C, E. coli surface display, apparent Kd
[2] = system: TBP6.7 deltaC truncated after residue 90 (in TBP6.7 Y31H/Q36R) (Homo sapiens); assay: ITC; settings: 20 C
[3] = molecular target: TBP6.7 R47K R47K (in TBP6.7 Y31H/Q36R) (Homo sapiens) (UniProt P09012); assay: ITC; settings: 20 C
[4] = molecular target: TBP6.7 T50A T50A (in TBP6.7 Y31H/Q36R) (Homo sapiens) (UniProt P09012); assay: ITC; settings: 20 C; error printed as XX
[5] = molecular target: TBP6.7 R47A R47A (in TBP6.7 Y31H/Q36R) (Homo sapiens) (UniProt P09012); assay: ITC; settings: 20 C; estimate, low c-value
[6] = molecular target: TBP6.7 P51A P51A (in TBP6.7 Y31H/Q36R) (Homo sapiens) (UniProt P09012); assay: ITC; settings: 20 C
[7] = molecular target: TBP6.7 R49A R49A (in TBP6.7 Y31H/Q36R) (Homo sapiens) (UniProt P09012); assay: ITC; settings: 20 C
[8] = molecular target: TBP6.7 Q48A Q48A (in TBP6.7 Y31H/Q36R) (Homo sapiens) (UniProt P09012); assay: ITC; settings: 20 C
[9] = molecular target: TBP6.7 P46A P46A (in TBP6.7 Y31H/Q36R) (Homo sapiens) (UniProt P09012); assay: ITC; settings: 20 C
[10] = molecular target: TBP6.7 R52A R52A (in TBP6.7 Y31H/Q36R) (Homo sapiens) (UniProt P09012); assay: ITC; settings: 20 C
[11] = system: TBP6.7 (U1A-derived TAR binding protein, crystallization variant) (Homo sapiens); assay: ITC
[12] = molecular target: TBP6.7 Q48T Q48T (in TBP6.7 Y31H/Q36R) (Homo sapiens) (UniProt P09012); assay: ITC; settings: 20 C
[13] = molecular target: TBP6.7 Q54A Q54A (in TBP6.7 Y31H/Q36R) (Homo sapiens) (UniProt P09012); assay: ITC; settings: 20 C
[14] = system: Tat peptide (basic domain) (Human immunodeficiency virus 1); settings: method of this Kd not stated

TBP6.7 R47K R47K (in TBP6.7 Y31H/Q36R) (Homo sapiens), sequence (P09012 1-98 Y31H/Q36R/R47K): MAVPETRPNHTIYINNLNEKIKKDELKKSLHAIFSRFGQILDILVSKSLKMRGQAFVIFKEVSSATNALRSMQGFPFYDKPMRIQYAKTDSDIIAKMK
TBP6.7 R47A R47A (in TBP6.7 Y31H/Q36R) (Homo sapiens), sequence (P09012 1-98 Y31H/Q36R/R47A): as the sequence (P09012 1-98 Y31H/Q36R/R47K) above, with K47A counted along it
TBP6.7 Q54A Q54A (in TBP6.7 Y31H/Q36R) (Homo sapiens), sequence (P09012 1-98 Y31H/Q36R/Q54A): as the sequence (P09012 1-98 Y31H/Q36R/R47K) above, with K47R, Q54A counted along it
TBP6.7 R52A R52A (in TBP6.7 Y31H/Q36R) (Homo sapiens), sequence (P09012 1-98 Y31H/Q36R/R52A): as the sequence (P09012 1-98 Y31H/Q36R/R47K) above, with K47R, R52A counted along it
TBP6.7 Q48A Q48A (in TBP6.7 Y31H/Q36R) (Homo sapiens), sequence (P09012 other isoform, or with tags, fused parts or gaps Q48A Q48A Y31H Q36R): as the sequence (P09012 1-98 Y31H/Q36R/R47K) above, with H31Y, R36Q, K47R, Y78H counted along it
TBP6.7 P51A P51A (in TBP6.7 Y31H/Q36R) (Homo sapiens), sequence (P09012 whole entry, stated change not applied): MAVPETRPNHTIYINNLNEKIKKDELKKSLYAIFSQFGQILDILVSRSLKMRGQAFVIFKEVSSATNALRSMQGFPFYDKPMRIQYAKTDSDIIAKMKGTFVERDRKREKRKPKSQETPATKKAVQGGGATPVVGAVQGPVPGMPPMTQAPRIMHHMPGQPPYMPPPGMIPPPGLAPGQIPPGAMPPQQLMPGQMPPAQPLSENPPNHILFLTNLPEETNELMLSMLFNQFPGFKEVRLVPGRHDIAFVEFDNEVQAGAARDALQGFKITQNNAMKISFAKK
TBP6.7 Q48T Q48T (in TBP6.7 Y31H/Q36R) (Homo sapiens), sequence (P09012 whole entry, stated change not applied): as above
TBP6.7 T50A T50A (in TBP6.7 Y31H/Q36R) (Homo sapiens), sequence (P09012 whole entry, stated change not applied): as above
TBP6.7 R49A R49A (in TBP6.7 Y31H/Q36R) (Homo sapiens), sequence (P09012 whole entry, stated change not applied): as above
TBP6.7 P46A P46A (in TBP6.7 Y31H/Q36R) (Homo sapiens), sequence (P09012 whole entry, stated change not applied): as above

HIV-1 TAR RNA
Kd [1]: 80 nM
Kd [2]: 12 nM
Kd [3]: 156 nM
Kd [4]: 11.4 nM
Kd [5]: 1520 nM
Kd [6]: 10.8 nM
Kd [7]: 710 nM
Kd [8]: 5.5 nM
Kd [9]: 11.7 nM
Kd [10]: 290 nM
Kd ([11]; 20 C, n=0.99): 2.5 nM
Kd ([11]; 37 C, 0.05 M NaCl, 0.05 M KCl, 2 mM MgCl2, 2 mM beta-mercaptoethanol, pH 7.5, estimate of about 0.7 nM at 20 C in same example): 18.5 nM
Kd [12]: 3.6 nM
Kd [13]: 7.2 nM
Kd [14]: 260 nM
